From patent US20080176793A1, “UPREGULATING ACTIVITY OR EXPRESSION OF BDNF TO MITIGATE COGNITIVE IMPAIRMENT IN ASYMPTOMATIC HUNTINGTON'S SUBJECTS” (THE REGENTS OF THE UNIVERSITY OF CALIFORNIA, priority 2006, published 2008)

Tests used:
Format in all cases: cell-based
[1] = tested on: hippocampal slices from Hdh^Q111 mice; assay: In situ rhodamine-phalloidin labeling of F-actin (TBS-induced actin polymerization in dendritic spines); settings: BDNF 2 nM, Hdh^Q111 slices after TBS, n=13, mean ±s.d.
Method: Physiological recording and delivery of TBS or low frequency stimulation was performed as described above. Starting 20 min after TBS, rhodamine-phalloidin (6 μM/2-4 μl; from Sigma, St. Louis, Mo., or Invitrogen, Carlsbad, Calif.) was applied topically (Kramar et al. (2006) Proc. Natl. Acad. Sci., USA, 103: 5579-5784) via micropipette 3 times separated by 3 min. To test the effects of BDNF on actin polymerization, BDNF (2 nM) or artificial cerebral spinal fluid was delivered to WT and Hdh^Q111 slices via a reperfusion pump system (Cole-Palmer, Vernon Hills, Ill.) at 1 ml/min 1-2 h before recording. […]
Sections were examined with epifluorescence illumination using an Olympus AX70 photomicroscope. Quantitative analyses were carried out on three serial sections situated 20 to 80 μm below the surface of original slice. […] These images were then converted to grayscale and intensity levels were cropped at values determined for each experiment to visualize low-intensity labeling.
Labeled spine-like structures were measured and counted from a 550 μm^2 sampling zone in the proximal stratum radiatum between the two stimulating electrodes using in-house software described in detail previously (Kramar et al. (2006) Proc. Natl. Acad. Sci., USA, 103: 5579-5784; Lin et al. (2005) J. Neurosci. 25: 2062-2069). […]

[2] = tested on: hippocampal slices from Hdh^Q111 mice; assay: TBS-induced long-term potentiation (fEPSP slope) in acute hippocampal slices, field CA1
Method: (§1) Acute hippocampal slices were prepared, as described elsewhere (Kramar et al. (2004) J. Neurosci. 24: 5151-5161), from 8 week old Hdh^Q111, 24 week old Hdh^Q92 and age-matched WT mice and maintained at 32° C. in an interface chamber of local design. Synaptic responses (fEPSPs) were generated by stimulating the Schaffer-commissural afferents to the apical dendrites of field CA1b pyramidal cells using stimulating electrodes positioned in fields CA1a and CA1c. For baseline recording, fEPSPs were set to 30% of the maximum responses and low frequency stimulation (3 pulses/min) was delivered. The slope of the descending phase of the fEPSP was used as a measure of response size with all values normalized to a 15 min baseline period collected 1-2 h after slice preparation. LTP was induced with a single TBS train (ten bursts of 4 pulses at 100 Hz, inter-burst interval of 200 ms). BDNF (2 nM) was prepared and delivered to slices as described previously (Menalled (2005) NeuroRx 2: 465-470).
(§2) For all electrophysiology experiments, results are summarized in the text as a percent increase in responses from baseline. Data are presented as mean ±s.d. in the text and mean ±s.e.m. in the figures.

[3] = tested on: hippocampal slices from Hdh^Q111 mice; assay: Within-train facilitation of theta burst responses in hippocampal slices; settings: BDNF-treated Hdh^Q111 slices
Description: Events that occur during the two-second period of TBS can potently influence the threshold, initial expression, magnitude, and stability of LTP (Arai and Lynch (1992) Eur. J. Neurosci. 4: 411-419; Larson et al. (1986) Brain Res. 368: 347-350). […] In marked contrast, the facilitation of the second and subsequent burst responses, each a composite of four closely spaced fEPSPs, was greatly attenuated in Hdh^Q111 slices (FIG. 2, panel a, e.g. burst 4). The facilitation effect was quantified by expressing the areas of burst responses 2-10 as fractions of the area of the first burst response.
as §1, §2

B1: BDNF: the neurotrophin, Brain-Derived Neurotrophic Factor, delivered at 2 nM to hippocampal slices (protein, UniProt P23560 19-247, looked up)
Neurotrophic factor BDNF …: APMKEANIRGQGGLAYPGVRTHGTLESVNGPKAGSRGLTSLADTFEHVIEELLDEDQKVRPNEENNKDADLYTSRVMLSSQVPLEPPLLFLLEEYKNYLDAANMSMRVRRHSDPARRGELSVCDSISEWVTAADKKTAVDMSGGTVTVLEKVPVSKGQLKQYFYETKCNPMGYTKEGCRGIDKRHWNSQCRTTQSYVRALTMDSKKRIGWRFIRIDTSCVCTLTIKRGR
For B1, the “number of phalloidin-labeled spines in the high-intensity bins” value [1] was 40.5±39.3 per 550 μm^2, the “effect on baseline transmission” value ([2]; BDNF 2 nM infused for 60 min, Hdh^Q111 or WT slices) was “did not detectably change baseline transmission” and the “LTP compared with WT slices” value ([2]; BDNF 2 nM, Hdh^Q111 slices (FIG. 7, panel a)) was “not detectably different from WTs”. For the same molecule, the “percent potentiation 45 min after TBS” value ([2]; BDNF 2 nM, Hdh^Q111 slices, mean ±s.d.) was 43.6±23.5%, the “LTP at 20 min post-TBS (percent increase in responses from baseline)” value ([2]; BDNF 2 nM, Hdh^Q111 slices, n=11, mean ±s.d.) was 59.9±28.3% and the “potentiation at end of 60 min post-TBS recording” value ([2]; BDNF 2 nM, subgroup of Hdh^Q111 slices, n=4) was “stable potentiation was present at the end of recording”. The “effect on responses to stimulation bursts in the theta train” value [3] was “did not facilitate responses to any stimulation burst”, the “burst 9 greater than burst 1” value ([3]; mean ±s.d.) was −5.8±9.3% and the “Facilitation of the second burst response” value ([3]; relative to burst 1, mean ±s.d.) was 46.1±10.2%.
